Experimental data as given in the DeepSol protein solubility set.

Test: soluble on expression in E. coli; label from the status in PepcDB or PDB records

Row | Sequence | soluble on expression in E. coli
1 | MLKLSKIVLISSLLVLVQQISYAKIGGFELIVNVPIGAGITLVNKNVSVAGNPKLGGNFQIGLEANIGYMFQIMDNMGVSLLGSLGYDFTGFSYSKNNNTENYKNTVHDIYRFLS | not soluble
2 | MLKLYVLVYKGEPLDYHEYRHTALYLKLPDNQSFIMHILGTQGMFEYAQIKNKDPSVVGSLAKVVPVADISEVIGSGPIQSTVAKTLVQNGPLDLDWNCQHWVGDALSKLAERKYITVAERAEAIDRMMDACLEAMDD | not soluble
3 | MLKSIILLICAHCAFSDRLDAGSQADCVAAANKIYNNEWGFDHKLVYDKELEPFAAETPCGIAYLQNGLAEVGSGGAHTSVNLREEHTRIACVPKKCGGVEVACAVGGPSMALNLKRKIRKLRQIRCLRTFGATVTLKN | not soluble
4 | MLKVIDVDFVSDHTLELTFNDGYQGYADLSVYFKKAPFSEIKDFKRFSLTRDGSLNWDGNELTAATLRDITKGSQKSVELSFNVQEMEAVIKQASWESMMEGRPDILQAAIRSYVEQFGHGQVIAKAGIKSRTSAYRSLKPETTPNFGTLVQLGHAVIELAKDRTVANKEPRI | not soluble
5 | MLKYEHIAKQLNAFIHQSNFKPGDKLPNVTQLKERYQVSKSTIIKALGLLEQDGLIYQAQGSGIYVRNIADANRINVFKTNGFSKSLGEHRMTSKVLVFKEMATPPKSVQDELQLNADDTVYYLERLRFVDDDVLCIEYSYYHKEIVKYLNDDIAKGSIFDYLESNMKLRIGFSDIFFNVDKLTSSEASLLQLSTGEPCLRYHQTFYTMTGKPFDSSDIVFHYRHAQFYIPSKK | soluble
6 | MLLLIDNYDSFTYNLYQYFCELGTEVMVKRNDELQLTDIEQLAPSHVVISPGPCTPNEAGISLAVIRHFADKLPILGVCLGHQALGQAFGARVVRARQVMHGKTSAICHSGQGVFRGLNQPLTVTRYHSLVIATDSLPGRFELTAWTERGGEMDEIMGIRHRTLPLEGVQFHPESILSEQGHQLLDNFLKN | not soluble
7 | MLLLLTFIESPIAGIPEIRKHNCLVLPHIFVCLVITKSFGRVVTSGAAVTKRAAGYFGYLAHCAADETTWYACEQFVIGHARKAVTHFIYLA | not soluble
8 | MLLQEELEQRTVSVSIQAAKLSGRVLRAAIAAVLQKMEQERTMPKVGRNSMKRLTYKDPGANTIEVSGRIRSFERYARKHQVRYHIEKELGTDPPKWTVYFKANQADALTAAFKEYTKKDLTRSTRPSLLIQLHKFKELAQSLGRDRVKNKEHGGPER | not soluble
9 | MLLRFIIGLSSVLLVTGLFNPLLPTLGDYLLTDQQVQKYFSVAGPSNLAIGTCNSVPFASAQAGFASSVGLAPTTTWREANILTNATIGMIDQGMDQLAAVCQARQQFVQTLGAAYDTCTDRFYLISLGNTDWWNVMQYTHLMKHLEFICSTGFDVYQSNIDCIRKGETTDGNQYRACFYKFNATVNANPNNFCGATETFIGCIKDFFDTECNLYVGWMQCELERIGFAYDCYGLSC | not soluble
10 | MLLSPEQFSRLSEYAAYSRRKLKDMLSDFQQDGKFYSYLSVDGQTINIDGFRAFLIDYFGADLPSDLVDQLFLSFSKPPIKERRTSLFEDAISTVRAKFSESLSGRMAGLNIAGGSGQQTDRSQSSEPQALVCIPEDDVMGPRVANNDSQEPRIPLKPLICTLSLLEADTPENKLDVVFHVYDSDGNGFLDKSEIDGIIEQMMNVARYQQWDTIELEQVIRQMMVDIDYDNDGIVSFDEWRRGGLTNIPLLVLLGFDTEMKEDGSHVWRLRHFTKPTYCNACCSILVGWGGKQGLSCSLCKYTVHERCVRSAATNCIRTYSSRQQDKLYHHWQDANATAKCVKCKATVGVFQGKGCRWCHNYVHHRCMSALAQECDLGALVHHILPPTHIFPAFLERKTSTSLKNHNFSSHSASLLQAVSPSNDCRPLLVLVNPKSGGKQGVKILQKFEYLLNPRQVYDLSKTGPEPGLQLFSTLKNCNILVCGGDGTIGWVLESMDKMTFPHGRPPVAVLPLGTGNDLARCLRWGGGYENENLHKILEQIEKSSLIDMDRWQIKIEITENKSARRASEKGDTPPYSIINNYFSIGVDASIAHRFHVMREKFPEKFNSRMRNKLWYFELGTSETLSSSCKNLHEQIDILCDGESIDLGQDASLEGIALLNIPSIYGGSNLWGRSRKSKGRMPGLFPMKNAEKMQLQTRVQDIGDGLIELVGLESAMQMGQIKAGVRGARRLSQCSTVVIQTHKSFPMQIDGEPWMQPPCIIQITHKNQAKMLVGEFRHILELSINFFLFTAAAPRKRSSWMLLKRQSTNDDN | not soluble
11 | MLMEPQFLRLVSHGANVLDPLSRIEPAAVGMMAGALQKGLAETFTPEAMQDPPRVGLAGFFKQLSDPEVQKALGVLFLFLKALGKAFGHMNEERKTLEAMMAKMMPKK | soluble
12 | MLMPRQTTPPLSLPLVGGGRFDLSAETSTRWTLICFYRGLHCPICATYLKELEKRVADFAERGVACVAVSSDSEERAQAMAEKVGGGTLRFAYDLPLAEARDWGLYISTSRGKTSIGIEEPALFSEPGLFLVTPERTLYYGAVQTMPFVR | not soluble
13 | MLMSLSRRELIKKEIFDIEEYVPGRSIEEIASTYGLKPESIIKLGSNENPLGPSPKAVKALIEAAPGANIYPSADAHELREALSKYTGFPVSNIVASGPGMDGLLDGLCRIIIEKGDEVIVPIPTFSYYELPARACGAEPVFIRRNQDFSLNPEKILEAVSPRTKIIFLCSPNNPSGNLLPEADLRKIIENTDALVFVDEAYVEFADRNLAALVNEYDNVAVGRTFSKVFGLAGLRLGYGIMPEWLTKEYLRAATPFSVSLPALRAGLAALSDTEYLNKSINLAREGREYLKEKIPFKVYPSQANFVLVDVSPLKAKKVTESLLKKGIIVRPCDSFREAGDSFIRVTVGTPEQNEKVVRAFEISKSEV | not soluble
14 | MLNEFDQYLHERYLSGKARKDRWYWNNSIQRGRSTAVRENWQWKPAVAYCRYADDFVLIVKGTKAQAEAIREECRGVLEGSLKLRLNMDKTKITHVNDGFIFLGHRIIRKRSRYGEMRVVSTIPQEKARNFAASLTALLSGNYSESKVDMAEQLNRKLKGWAMFYQFVDFKAKVFSYIDRVVFWKLAHWLARKYRTGIASLMRWWCKSPKPGQSKTWVLFGKTNHGKLSGEILYRLVGQGKKLFRWRLPEGNPYLRTETRNTYTSRFTEVAMAFASI | not soluble
15 | MLNIDTQFVDTIGKILSDYVSHSEITRMGEVLGYPQNDQNSGFNKHKRVHNLVSDILNRTQNTDNIKLVIEYVCNPLRYINEVSIFEQLRTAINIPLSLKGLIVSDSGQIVTTTTSKTLSEAKKRFETLDSRLKELKVHPHVLKFCTQELLQENYFHAVFEASKGVFHRIRLLTGSAMDSASLIDQCFKPGEPIVIINGNKLQTLDEQSEYKGLKNLLLAIAHLYRNSKAHKLKYYNPDNLNDALTALTLMSLAHNLLDSCSNTRRLD | soluble
16 | MLNMPAEFEQFHWMVDMVQNVDMGLVVIDRDYNVQVWNGFMTHHSGLQSHEAIGRSIFDIFPEIPPEWFKLKTKPVYDLGCRSFITWRQRPYLFRCRNVRPVTQQAEFMYQNVTLNPMRTPTGKINSLFLSIQDATAEALMSQ | not soluble
17 | MLNQSLRPLVNVQVRSVSSKYPRPTPRHFKRRLFEAALKPELPPTVNMCIPPGLIKREHTGKSKEYSDVELALSNLVRDWMVREEFRVMAVCQFLPVPGRTLWFAKNQLRSKNIEFRSYGNKILKKIFDKTPMSSLNTVLVGNNAILLAKDISAIKSILQETDKLNWIEPLVMMADGRIVDMVDARELAKLSSLEDLRAHTVQLLGQQVAQVTISLDTVTRHLPSLLDSHISTNQEAKK | not soluble
18 | MLNRNRNVNKQNGHQKQNGAQKSELRGKNAPPYLERETCLGRNDIFVVEKMIAGGGFGQVYRARNTETQEEVAVKVERATTNDSQRMILESKVLDDMLGSKHFPNVYYIGPYHSYNFIVMQMLGKNIGDIRKMMPNKKISILSSVRIGIQIIEALSLLHSKGWLHRDLKPTNCCLGLDEKRKTVYLVDFGMSRKFRNDNGSLRESRTYCGFRGTTRYCSYRMHDRREQGPVDDLWCLYYSLGELIEGCLPWRDIESADEMAHVKKILKHEDIFHSMPSKFASFGRNLRRLRPANTPDYTKFQNILAYCVKFVDDNAEFEWDVMDY | not soluble
